From patent publication US20210079107A1 (Novartis, published 2021)
Several values for one entry are separate records, joined by “and”; a condition that tells them apart may be missing. Identical values can stand only once.

B1: HCD122 (wild-type IgG1 version of CFZ533) (antibody)
heavy: not shown
light: DIVMTQSPLSLTVTPGEPASISCRSSQSLLYSNGYNYLDWYLQKPGQSPQVLISLGSNRASGVPDRFSGSGSGTDFTLKISRVEAEDVGVYYCMQARQTPFTFGPGTKVDIRRTVAAPSVFIFPPSDEQLKSGTASVVCLLNNFYPREAKVQWKVDNALQSGNSQESVTEQDSKDSTYSLSSTLTLSKADYEKHKVYACEVTHQGLSSPVTKSFNRGEC
notes: it calls it the parental antibody and the wild-type IgG1 version of CFZ533 (N297A IgG1); It is built here as the CFZ533 chains with Asn in place of the Ala of N297A; 297 is a constant-region number; also called parental antibody
B2: CFZ533 (antibody, human IgG1, kappa, N297A)
heavy: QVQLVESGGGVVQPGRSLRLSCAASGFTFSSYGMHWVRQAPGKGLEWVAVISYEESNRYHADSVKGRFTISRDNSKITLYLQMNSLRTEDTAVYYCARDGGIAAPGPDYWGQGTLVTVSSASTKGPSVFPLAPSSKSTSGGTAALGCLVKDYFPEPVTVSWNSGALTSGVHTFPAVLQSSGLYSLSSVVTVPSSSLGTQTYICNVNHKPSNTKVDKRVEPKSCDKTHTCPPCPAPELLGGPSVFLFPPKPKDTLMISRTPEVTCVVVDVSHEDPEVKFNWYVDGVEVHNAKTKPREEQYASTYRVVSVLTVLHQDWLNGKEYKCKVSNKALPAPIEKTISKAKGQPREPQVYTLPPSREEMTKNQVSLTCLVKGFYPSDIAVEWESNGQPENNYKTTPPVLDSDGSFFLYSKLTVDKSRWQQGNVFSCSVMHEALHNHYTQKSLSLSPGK
light: B1 light
notes: In the receptor occupancy and internalisation assays it was labelled with AlexaFluor 488; also called mAb1; iscalimab

What was measured:
[1] = biological target: T1, recombinant human CD40 (human, UniProt P25942 21-193); experiment: SPR (Biacore T100), antibody captured on Protein A, CD40 as analyte, 25 °C, 1:1 model
T1 construct: Soluble analyte in SPR; also called CD40 antigen
Text: A typical binding analysis cycle consisted of three steps: (i) capture of the antibody via ProteinA immobilized on the chip surface, (ii) binding of CD40 antigen to the captured anti-CD40 antibody, and (iii) regeneration of the ProteinA surface. To determine the kinetic rate constants of the antigen-antibody binding interactions, binding data were processed, double referenced with responses from blank injections. The binding curves were fitted locally using the 1:1 interaction model of the Biacore T100 Evaluation software to determine kinetic rate constants. The value for the equilibrium dissociation constant (KD) was calculated as the ratio of the rate constants kd/ka. All binding measurements were performed in two independent experiments.

[2] = biological target: T2, human FcγRIIIA 158F extracellular domain (human, UniProt P08637 17-199, site directed biotinylated with BirA (Avi tag)); experiment: SPR (T100), biotinylated receptor on streptavidin chip, equilibrium binding, 1:1 model
T2 construct: range 17-199; not shown: 4-amino acid purification tag (4APP; Novartis)
Text: (§1) Extracellular domains of human FcγRIIIA tagged with a 4-amino acid purification tag (4APP; Novartis) and an Avi biotinylation tag ([…]; Avidity) were synthesized by Geneart: human FcγRIIIA (CD16a) 158V (Uniprot: P08637, 17-199), human FcγRIIIA 158F (Uniprot: P08637, 17-199), expressed in HEK293 cells and purified with anti-4APP affinity chromatography. Receptors were site directed biotinylated with BirA (Avidity), bound to streptavidin sensor chips (General Electric), and the equilibrium-binding levels of the different Abs were analyzed by surface plasmon resonance (T100, General Electric) as described (Warncke et al. 2012). Equilibrium dissociation constants (KD) were calculated by a 1:1 model.

[3] = biological target: T2, human FcγRIIIA 158F extracellular domain; experiment: SPR, biotinylated receptor on streptavidin chip, equilibrium binding
Text: as §1

[4] = biological target: T3, human FcγRIIIA (CD16a) 158V extracellular domain (human, UniProt P08637 17-199, site directed biotinylated with BirA (Avi tag)); experiment: as above
T3 construct: range 17-199; 158 is the usual mature numbering of the V/F allotype; also called Human FcγRIIIA 158V; not shown: 4-amino acid purification tag (4APP; Novartis)
Text: as §1

[5] = biological target: T4, human CD40 on cells (CD20+ B cells of whole blood/PBMCs, tonsil B cells, moDCs, RI-1 B cell line) (human, UniProt P25942 21-277); experiment: cell-based or functional assay
[6] = biological target: T4, human CD40 on cells (CD20+ B cells of …); experiment: flow cytometry, CD40 occupancy by CFZ533 (MFI EC50 on CD20+ cells), human, n = 4
[7] = biological target: T5, cynomolgus monkey CD40 on CD20+ B cells (cynomolgus, UniProt G7PG38 21-278); experiment: flow cytometry, CD40 occupancy by CFZ533 (MFI EC50 on CD20+ cells), cynomolgus, n = 4
T5 construct: whole, on cells; also called NHP CD40

[8] = biological target: T4, human CD40 on cells (CD20+ B cells of …); experiment: cell-based or functional assay; remark: listed apart in the source
[9] = biological target: T5, cynomolgus monkey CD40 on CD20+ B cells; experiment: cell-based or functional assay
[10] = biological target: T6, rhesus monkey CD40 on CD20+ B cells (rhesus, UniProt F6SNI1 21-278); experiment: cell-based or functional assay
[11] = biological target: T6, rhesus monkey CD40 on CD20+ B cells; experiment: flow cytometry, CD40 occupancy by CFZ533 (MFI EC50 on CD20+ cells), rhesus, n = 6
[12] = biological target: T4, human CD40 on cells (CD20+ B cells of …); experiment: flow cytometry, CD40 occupancy by CFZ533 (MFI EC50 on CD20+ cells), human, n = 4; human CD20+ cells, n = 4
[13] = biological target: T4, human CD40 on cells (CD20+ B cells of …); experiment: cell-based or functional assay; remark: listed apart in the source

T4 sequence (P25942 21-277 limits assumed): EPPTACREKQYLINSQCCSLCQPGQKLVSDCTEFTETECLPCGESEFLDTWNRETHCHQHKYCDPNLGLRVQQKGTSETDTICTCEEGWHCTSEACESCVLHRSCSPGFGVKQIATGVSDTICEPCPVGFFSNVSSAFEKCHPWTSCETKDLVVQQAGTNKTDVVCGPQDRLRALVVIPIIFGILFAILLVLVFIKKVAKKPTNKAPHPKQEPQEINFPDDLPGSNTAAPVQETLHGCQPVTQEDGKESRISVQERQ
T1 sequence (P25942 21-193 limits assumed): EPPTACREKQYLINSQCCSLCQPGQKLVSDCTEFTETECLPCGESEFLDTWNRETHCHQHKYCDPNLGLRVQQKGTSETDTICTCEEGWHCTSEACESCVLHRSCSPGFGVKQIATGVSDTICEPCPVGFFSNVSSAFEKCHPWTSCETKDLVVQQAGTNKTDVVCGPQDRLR
T2 sequence (P08637 other isoform, or with tags, fused parts or gaps): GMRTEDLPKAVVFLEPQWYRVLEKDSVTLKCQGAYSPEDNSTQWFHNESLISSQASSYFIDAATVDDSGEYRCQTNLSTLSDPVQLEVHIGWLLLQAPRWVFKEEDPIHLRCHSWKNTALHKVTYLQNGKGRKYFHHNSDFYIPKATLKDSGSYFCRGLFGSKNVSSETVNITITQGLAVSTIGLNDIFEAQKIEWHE
T3 sequence (P08637 other isoform, or with tags, fused parts or gaps): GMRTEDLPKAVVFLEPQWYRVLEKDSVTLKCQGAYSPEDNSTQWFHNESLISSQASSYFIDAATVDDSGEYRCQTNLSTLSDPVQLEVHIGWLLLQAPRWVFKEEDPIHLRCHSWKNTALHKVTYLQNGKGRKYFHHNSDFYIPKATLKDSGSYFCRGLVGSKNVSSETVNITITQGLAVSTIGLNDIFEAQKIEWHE

Row | Binder | Kd [1] [nM] | koff [1] [s⁻¹] | kon [1] [M⁻¹ s⁻¹] | Ka [2] [M⁻¹] | binding result [3] | binding result [4] | IC50, rCD154-induced TNF production by primary monocyte-derived dendritic cells (moDCs) [5] | IC50, rCD154-induced proliferation of human whole blood cultures [5] | IC50, rCD154-induced proliferation of purified tonsillar B cells [5] | EC50 [6] [µg/mL] | EC50 [7] [µg/mL] | Inhibition of rCD154-induced proliferation (IC50 PBMCs) [8] [µg/mL] | Inhibition of rCD154-induced proliferation (IC50 PBMCs) [9] [µg/mL] | Inhibition of rCD154-induced proliferation (IC50 PBMCs) [10] [µg/mL] | EC50 [11] [µg/mL] | EC50 [12] [nM] | IC50 (read off the curve): rCD154-induced CD69 expression on CD20pos B cells, human whole blood [13] [µg/mL]
1 | B1 | 0.467 | 0.000126 | 284000 | 699000 |  |  |  |  |  |  |  |  |  |  |  |  | 
2 | B2 | 0.305 | 9.3e-05 | 313000 |  | no binding | no binding | 0.04 µg/ml and 0.27 nM | 0.024 µg/ml and 0.16 nM | 0.47 nM and 0.071 µg/ml | 0.22 | 0.2 | 0.017 | 0.01 | 0.026 | 0.22 | 1.49 | ~0.1
